Assay results as given in the supplement of paper PMC9732359.
± gives the uncertainty stated by the source.

Assay: protein stability index of a GFP-peptide fusion (yeast GPS) (PSI 1-4); higher = more stable; sorted into four equal gates, so the index is relative within each strain
Method in brief: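 Plasmids isolated from each sorting gate were PCR-amplified and Illumina-sequenced, and barcodes assigned the reads to strains. The gates, four of equal size, were set by GFP/Cherry fluorescence ratio on mid-log cultures in leucine-free medium. These cultures were yeast carrying a pooled library of tiled 17-residue yeast protein peptides fused downstream of GFP on a plasmid that also expresses Cherry. The protein stability index is the sum of every gate's read frequency times its gate number.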

Sequence | protein stability index (doa10∆) | protein stability index (pdr5∆) | protein stability index (san1∆) | protein stability index (ubr1∆)
SKMGAPWCVKPEYLAMY [ITC1] | 2.92 ± 0.057 | 3.23 ± 0.048 | 3.1 ± 0.043 | 3.11 ± 0.058
MNKDQAEKYQERSLRQK [SNM1] | 3.3 ± 0.089 | 3.25 ± 0.089 | 3.35 ± 0.069 | 3.53 ± 0.093
KPSPIDSGIGSNGSGIV [CSL4] | 3.17 ± 0.06 | 2.89 ± 0.042 | 2.94 ± 0.04 | 3.1 ± 0.046
IKVLLRQNRRPELGDKF [RET1] | 3.15 ± 0.25 | 3.49 ± 0.18 | 3.36 ± 0.09 | 3.41 ± 0.092
AAGIWTCSCCKKTVAGG [RPL43A] | 2.42 ± 0.13 | 3.17 ± 0.11 | 3.02 ± 0.097 | 2.99 ± 0.074
KKSKIQLLDIAEFKKEN [LIN1] | 1.42 ± 0.1 | 2.29 ± 0.13 | 2.44 ± 0.16 | 2.99 ± 0.11
PFVLAENMWPFSYQEVE [CDC53] | 1.6 ± 0.037 | 1.9 ± 0.04 | 1.56 ± 0.051 | 2.25 ± 0.028
DRVIFRVPIRSEYKVAF [PRP8] | 2.93 ± 0.069 | 2.71 ± 0.061 | 2.55 ± 0.077 | 2.42 ± 0.034
DINQAKDFIENVNNRFD [BRN1] | 3.25 ± 0.12 | 3.23 ± 0.086 | 3.3 ± 0.067 | 3.08 ± 0.056
LVLYDAENDVIEATDLG [BRR2] | 3.29 ± 0.13 | 3.26 ± 0.12 | 3.45 ± 0.092 | 3.24 ± 0.066
AKNIISNVLDGNKNQFE [LRP1] | 2.46 ± 0.056 | 2.77 ± 0.049 | 2.92 ± 0.045 | 3.23 ± 0.049
LVKALEDIMVHYDNTTR [RPO21] | 1.46 ± 0.061 | 1.91 ± 0.062 | 1.32 ± 0.086 | 1.68 ± 0.072
FTNVPLNLEQVTLNKYC [YJL039C/NUP192] | 1.99 ± 0.047 | 1.99 ± 0.045 | 1.92 ± 0.077 | 2.14 ± 0.045
TVQSWLCDLFVNGSITD [NUT1] | 1.46 ± 0.038 | 1.45 ± 0.048 | 1.48 ± 0.086 | 1.23 ± 0.043
SVNFFVSLLKKNWQNVG [RPL1A] | 1.19 ± 0.07 | 1.32 ± 0.063 | 1.25 ± 0.14 | 1.46 ± 0.063
REIQTAVRLILPGELAK [HTB1] | 3.25 ± 0.088 | 3.14 ± 0.06 | 2.55 ± 0.088 | 3.08 ± 0.051
GLHKFVKGDLLQEAIDF [PRE10] | 2.93 ± 0.1 | 2.83 ± 0.079 | 3.09 ± 0.082 | 2.99 ± 0.053
GKTIVVKDLGQGLKLAK [SMC3] | 2.9 ± 0.15 | 2.92 ± 0.15 | 2.45 ± 0.16 | 2.81 ± 0.067
MLLLNDSVENSSNILED [SRB8] | 2.65 ± 0.078 | 2.57 ± 0.078 | 2.58 ± 0.065 | 2.38 ± 0.061
FIDSICKLFDKISFNLR [SRB8] | 2.23 ± 0.054 | 2.23 ± 0.046 | 1.96 ± 0.063 | 1.98 ± 0.053
LKDFNTERVVEIGPSPT [FAS2] | 2.888 ± 0.024 | 2.901 ± 0.022 | 2.861 ± 0.017 | 2.716 ± 0.014
PLSLTHRDKNKMDMICR [DIS3] | 3.24 ± 0.13 | 3.43 ± 0.16 | 3.23 ± 0.13 | 3.16 ± 0.18
IQRTTESLILKWDNQSA [RGR1] | 3.14 ± 0.051 | 3.05 ± 0.056 | 2.36 ± 0.059 | 2.94 ± 0.05
VTKEYFQDVYDLTGSEP [FAS1] | 2.53 ± 0.23 | 2.82 ± 0.078 | 1.43 ± 0.18 | 2.68 ± 0.092
TGLCSFDYSVILNSIPA [YJL039C/NUP192] | 1.6 ± 0.052 | 1.51 ± 0.059 | 1.49 ± 0.095 | 1.28 ± 0.045
NHNQFECKGCDNKIDIY [RPB2] | 3.06 ± 0.044 | 3.19 ± 0.047 | 3.06 ± 0.034 | 3.1 ± 0.037

Sequence | protein stability index (doa10∆) | protein stability index (pdr5∆) | protein stability index (san1∆) | protein stability index (ubr1∆)
RILKNKAEYLKNCPITQ [RPC40] | 2.96 ± 0.052 | 3.12 ± 0.048 | 3.02 ± 0.04 | 2.83 ± 0.037
FKHGPMSLINDAMVTRT [SMD2] | 2.9 ± 0.11 | 2.43 ± 0.09 | 2.76 ± 0.093 | 3.01 ± 0.085
KIEFPLPSEDSRAQILQ [RPT5] | 3.39 ± 0.15 | 3.18 ± 0.13 | 3.11 ± 0.09 | 3.51 ± 0.11
GGNNNNNSTGIANDNVI [SWI1] | 2.87 ± 0.057 | 3 ± 0.053 | 2.94 ± 0.05 | 3.14 ± 0.044
DPLRIAMKELAEKKIPL [RPO26] | – | 3.26 ± 0.18 | – | –
EEQEEEPDREKIKLLTQ [RPC19] | 2.93 ± 0.25 | 3.24 ± 0.11 | 2.52 ± 0.15 | 2.65 ± 0.23
HFKKPDITVHGEQIIVH [RRP45] | 1.43 ± 0.14 | 1.37 ± 0.23 | – | 1.4 ± 0.13
VNQTGSTKKDTVQLTFL [YCG1] | 3.05 ± 0.29 | 3 ± 0.16 | – | 2.9 ± 0.16
WNRLTISVTDTEVERAK [COR1] | 3.19 ± 0.09 | 3.12 ± 0.076 | 3.08 ± 0.051 | 3.21 ± 0.085
NNTEKNDVTNKNINIGK [SIR4] | 2.1 ± 0.055 | 2.21 ± 0.052 | 2.9 ± 0.043 | 2.37 ± 0.044
DEDIITIFKYLTDKDAF [CDC53] | 2.91 ± 0.14 | 3.15 ± 0.11 | 3.21 ± 0.061 | 3.19 ± 0.059
DDLIHFTLKQWNRLTIS [COR1] | 1.3 ± 0.052 | 1.34 ± 0.041 | 1.27 ± 0.066 | 1.33 ± 0.043
ASITGTGSNDRCIGDSD [YMR129W/POM152] | 3.11 ± 0.083 | 2.78 ± 0.12 | 2.35 ± 0.11 | 2.88 ± 0.1
LSLHENYPQDEINAVFN [POP1] | 2.97 ± 0.067 | 3.11 ± 0.056 | 3.05 ± 0.04 | 3 ± 0.059
PASNILRRTTQRVFDET [YDL116W/NUP84] | 2.66 ± 0.13 | 2.66 ± 0.061 | 2.77 ± 0.13 | 2.62 ± 0.1
DNLGQTKIIMATNRPDT [RPT4] | 2.76 ± 0.084 | 2.56 ± 0.1 | 2.79 ± 0.079 | 2.67 ± 0.079
FGQASGASTGNANTGFS [YGL172W/NUP49] | 3.18 ± 0.28 | 3.39 ± 0.17 | – | –
SMNKELIAIVSKLLQTT [NUT1] | 1.88 ± 0.057 | 1.79 ± 0.096 | 2.28 ± 0.14 | 1.4 ± 0.083
SRKQKVIKTLTVDVSSP [RPL22B] | 2.52 ± 0.094 | 2.6 ± 0.08 | 2.36 ± 0.12 | 2.79 ± 0.058
IGAVYSGMGPDYRVLVD [PRE8] | 3.67 ± 0.28 | – | 2.92 ± 0.3 | 3.38 ± 0.12
NTENNDPDIPMTIDLEP [IRR1] | 3.07 ± 0.17 | 2.94 ± 0.16 | 2.48 ± 0.19 | 3.14 ± 0.12
RTSATREDTPLSQNEST [ISW2] | 2.99 ± 0.072 | 3.16 ± 0.064 | 2.93 ± 0.062 | 2.96 ± 0.05
SPTSPSYSPTSPSYSPT [RPO21] | 2.74 ± 0.037 | 2.91 ± 0.039 | 2.72 ± 0.036 | 2.82 ± 0.029
AAKLKQTENDLKDIEAR [RPT1] | 2.48 ± 0.1 | 2.53 ± 0.1 | 2.46 ± 0.19 | 3.1 ± 0.087
KHHQLFYMLNAGIRPKF [RPN1] | 2.23 ± 0.17 | 2.04 ± 0.085 | 1.7 ± 0.082 | 1.98 ± 0.1
SGDKEATAPLIQRKNKK [RPN8] | 3.39 ± 0.2 | 3.35 ± 0.14 | 3.25 ± 0.095 | –
